From publication PMC6265470, “Structural, functional and biological insights into the role of Mycobacterium tuberculosis VapBC11 toxin–antitoxin system: targeting a tRNase to tackle mycobacterial adaptation” (Nucleic Acids Research, 2018)
Where “and” joins values, the source holds several entries; their conditions need not be identical. Identical values can stand only once.

B1: VapB11 (shorter form, VapB11^6-72), (6x-His)-VapB11 (domain or fragment)
chain: MSRTNIDIDDELAAEVMRRFGLTTKRAAVDLALRRLVGSPLSREFLLGLEGVGWEGDLDDLRSDRPD
notes: Homodimer by AUC; also called antitoxin VapB11
B2: VapC11 toxin (purified alone) (enzyme)
chain: ILIDTSAWVEYFRATGSIAAVEVRRLLSEEAARIAMCEPIAMEILSGALDDNTHTTLERLVNGLPSLNVDDAIDFRAAAGIYRAARRAGETVRSINDCLIAALAIRHGARIVHRDADFDVIARITNLQAASFR
notes: VapC11 toxin (PIN domain ribonuclease) of the VapBC11 toxin-antitoxin system, Mycobacterium tuberculosis; 134 amino acids as printed; also called wild-type protein

Experiments:
[1] = target: the molecule itself; test: […] (pH 8.0), 150 mM NaCl, […]
[2] = target: B2; test: SPR; Biacore 3000; VapC11 immobilised on a CM5 chip (up to 750 RU); five concentrations of VapB11 injected; 10 mM HEPES (pH 7.5), 150 mM NaCl, 25°C, 20 μl/min; 1:1 Langmuir model with drifting baseline; settings: both partners purified
AUC = target: the molecule itself; test: AUC

| Binder | stoichiometry N [1] | Kd [2] | koff [2] | kon [2] | stoichiometry N (AUC) |
| --- | --- | --- | --- | --- | --- |
| B1 | 2 | ~0.6 nM | 0.000133 s⁻¹ | 1.15e+06 M⁻¹ s⁻¹ | – |
| B2 | – | – | – | – | 2 and 4 |
